Experimental findings from publication PMC8096239, “Nse5/6 is a negative regulator of the ATPase activity of the Smc5/6 complex” are described below.

This data set concerns the target Smc5/6 holo-complex (S5-S6-N2/N1-N3-N4);Nse5/6 (Saccharomyces cerevisiae;Saccharomyces …, UniProt Q08204;Q12749;P38632;Q07913;Q05541;P43124;Q03718;P40026 …, |). Kind of data set: EMSA; purified super-complex containing Nse5/6; no significant perturbation vs holo-complex; EMSA: 200 nM hairpin, 20 mM HEPES-NaOH pH 7.5, 150 mM NaCl, 0.5 mM TCEP, 30 min at 4 C; 0.8% TBE-agarose gel, 50 V, 3 h, 4 C. As to conditions: protein: recombinant;recombinant, tags: Smc5-FLAG, Smc6-AVI-HIS, HA-Nse2, HIS-TEV-Nse1, Nse3 untagged, Nse4-HALO-Myc;Nse5-C.tag (GAAEPEA), HIS-3C-Nse6, copies: 1;1;1;1;1;1;1;1, label: fluorescein on position 5 of thymine, 6-carbon spacer, 48 bp stem, 4 nt loop AATA, blunt end. A general note: In EMSA bound probe runs differently from free probe, usually more slowly.

B1: oligonucleotide C, self-annealed dsDNA hairpin (structured_DNA)
DNA: ATCAGTACTTGTCAACACGAGCAGCCCGTATATTCTCCTACAGCACTAAATATAGTGCTGTAGGAGAATATACGGGCTGCTCGTGTTGACAAGTACTGAT
modifications: internal fluorescein-dT (iFT), between S3 and S4 (position 51, in loop)
Regarding B1, the binding result is on record as “binds”.
